Measurements: the DeepSol protein solubility set

Assay: soluble on expression in E. coli; label from the status in PepcDB or PDB records
With “MTIKVGINGFGRIGRIVFRAAQKRSDIEIVAINDLLDADYMAYMLKYDSTHGRFDGTVEVKDGHLIVNGKKIRVTAERDPANLKWDEVGVDVVAEATGLFLTDETARKHITAGAKKVVMTGPSKDNTPMFVKGANFDKYAGQDIVSNASCTTNCLAPLAKVINDNFGIIEGLMTTVHATTATQKTVDGPSHKDWRGGRGASQNIIPSSTGAAKAVGKVLPELNGKLTGMAFRVPTPNVSVVDLTVRLEKAATYEQIKAAVKAAAEGEMKGVLGYTEDDVVSTDFNGEVCTSVFDAKAGIALNDNFVKLVSWYDNETGYSNKVLDLIAHISK” the “soluble on expression in E. coli” value was “soluble”.
For “AEASADLRADAMAKDRSEEERTTEAEKNERVQKHLKALTSELANARDESKKTANDMIHAENMRLGRDKYKTLRQIRQGNTKQRIDEFESM”, the “soluble on expression in E. coli” value was “soluble”.
With “MGSDKIHHHHHHMPKKSFAQDCLYTAIMRLMREKDVDDITVKELVLKAGVARSTFYRYYTQPMDVLRDYLRPFNHGNAHLDDKDDKKVYLRRFYQYYTGHSELIYTLVQANKTEFLRETISCHILEVFSPMMTNKGVSPFLQKASVGLCVETLILWIVNDRKEKIEEMTDTVHNMVAVVERVS” the “soluble on expression in E. coli” value was “not soluble”.
For “MFLEECKTHFNTDCLYELLGVKKDCDEKALKKGYYRQSMRWHPDKSNLVEEDMQTYTTKFQLLNKAYQILSDEEKRKIYDETGSVDDEAGELNEDALKAWRMIFKKVTKEDIDSFMKTYQGSREQKDELVVHYEKFNGDIAKIREYAIGFDGVEELKEALDKLIDDGEIEKTKKYETSTSDKKMKAYKRKAEKEAIEVENMTQNNSDLVALIQGRQKERGTSFLDSLAAKYAPSSSKKAKRQ”, the “soluble on expression in E. coli” value was “not soluble”.
For “MGSDKIHHHHHHMDVTMGYFTIPKGPGDSTDARWYNAPGGRSIFLRPDNKGTTRAVLTLQAPIREAPESAQEQKRWLKERFADAGWEAPRVLDGLEDATDLYFDLLRQVRMKRWHKGRIALTGDAAWCATPLSGIGTTLAIVGAYVLAGELSKTHDIAQAFKCYENIMRPFVEKGQNVPKFGPRLMHPHSRLGVSFQRSALRFVSKPGIQKVLTKVAMPAADKVDLPDYQYHASS”, the “soluble on expression in E. coli” value was “not soluble”.
For “MGSDKIHHHHHHMFTQVYEEIRQLTISKVLDFYDHEVRRLDEAARQTKYQKMSASPFLFFRGSSHLFYYDVTRIPLGFDTPPETPTWIQGDLHFENFGVHGNAKGEIIYDVNDFDEGYLGSYLYDLIRMAVSVQLFAEEAGYDAKPAIAAYVQHYLDDLRQYAKGKNPSKVCFTTDNTKGPIRKLIKKAEKKKAELLGERTTVVDGQRRFADLPDMKRLDSSAYTAIEAVWPEYIASIDAEDRQEDGFYAIKDIVYKLDSGTASIGLERYYILVEGTGGEHEDLILEMKQAQSSVPSLFVPAYLQEVETVHQGRRIVTSQKAMQAHEDPYLGYVTMHGKEYYVRERSPYKKKLKAKHIKSQDDLENVLSIQGQITAKIHARADMDAGVDVDILHHHADVVIIESIGVSDAEFIRQIQRWSSAYAARTTLDFQVFLSWLANR”, the “soluble on expression in E. coli” value was “not soluble”.
For “MIMALSSFGKILTVLDLFSVHRPIINVDIICEELALSKPTGYRYLKELVSSEILQRISGTSGDYTLGPKIAVMDYISRTTDPIVQMSSPFMRDIAERTELCCLLTHLNRDYCIDVHHEVFRNADLLSYGRGCPRPVYMGSSPKVIMAHLPKRQIQDYYQRFSRQLAEVDFAHDEESFLIRMKKIKKDGYYISHGELNPDVTGLSVPIKFSHTKESPMALTLVASKNRFEFINIDKLIEILQANVIHIEQKSLALIQIEKSLH”, the “soluble on expression in E. coli” value was “not soluble”.
For “MAITINIYYSGTNGGAREFAKEMIASGIVEAIRAEKGNSRYEYFFPMDDEETVLLIDSWTDQEALDKHHASPMMTRITELREKYDLHMKVERYVSDVTDPLTKDAAFIRK”, the “soluble on expression in E. coli” value was “not soluble”.
With “MGSDKIHHHHHHMTTPANAVDTALITRRSIRAFLPTPVPRADIEAILEAASRAPSGTNTQPWKVYVVTGESLARLSRALLAAYDDPQRDALYQEEYPYYPHQWVSPYIDRRRKIGWDLYGLLGITKGDKARMHEQHAQNYRFFGAPVGLFFTIDRVMERGSWLDYGMFLQAIMTAARGRGLDTCPQAAFTQFHRVIAEHLGLPPEEQLVCGMSLGFADEDALVNTLRTEREPVERFTRFLD” the “soluble on expression in E. coli” value was “not soluble”.
For “MDTEKLMKAGEIAKKVREKAIKLARPGMLLLELAESIEKMIMELGGKPAFPVNLSINEIAAHYTPYKGDTTVLKEGDYLKIDVGVHIDGFIADTAVTVRVGMEEDELMEAAKEALNAAISVARAGVEIKELGKAIENEIRKRGFKPIVNLSGHKIERYKLHAGISIPNIYRPHDNYVLKEGDVFAIEPFATIGAGQVIEVPPTLIYMYVRDVPVRVAQARFLLAKIKREYGTLPFAYRWLQNDMPEGQLKLALKTLEKAGAIYGYPVLKEIRNGIVAQFEHTIIVEKDSVIVTQDMINKST”, the “soluble on expression in E. coli” value was “soluble”.
In the case of “SAEEPEPDLGVAEGSEDQALEMPSWKAPEDIDPQPGSYEIRHYGPAKWVSTCVESLDWDSAIQTGFTKLNGYIQGKNEKEMKIKLTAPVTSYVEPGSSPFSLLMDSPVAKRIKNNF”, the “soluble on expression in E. coli” value was “soluble”.
For “MAVQFEFYKNPVQGEEEGETSYHPRVVNFQHVTTQRLAVEIHSATTFGKAEVEAMLMELSRCMGNHLREGQRVHLDGVGYFQITLQATEPIHSMAAHADKVKFKSVSFLADRDLKGELIGMHAQRSKYKPHSATLSQEEIDKKLTGYFATHTVLTRSDMQSLCQFTHSMAARHIRRLKEEGSLQNIGIRTQPIYVPCPGHYGK”, the “soluble on expression in E. coli” value was “not soluble”.
With “MGSDKIHHHHHHMLISANFDGGNIEVINQDDINNVQLAIRPDEGGEFFQWFNFRLQGEVGQRYTLNIINAGQASYTKGWEDYQAAATYDRQQWFRLPTQYQDGKLTIEVELDCEMIQIAYFAPYSYERHQDLLSAVQVHPLVSLEHLGKTLDDRDMTLVKVGDEDEEKAKIWITARQHPGETMAEWLVEGLLNNLLDGDCPTAKALLDKANFYIVPNMNPDGGVRGHLRTNAKGVNLNREWQSPSLEKSPEVYHVVNRMKETGVDLYYDVHGDEGLPYVFLAGCEGVPGYNQKMADLQGDFVKALLMASADFQDEFGYDKDEPGQANLTVASNWVAQTFGCLSNTLEMPFKDNANMPDPMSGWSPERCIYLGEASLLAMLAVVDKLR” the “soluble on expression in E. coli” value was “not soluble”.
For “MKKWLLAAGLGLALATSAQAADKIAIVNMGSLFQQVAQKTGVSNTLENEFKGRASELQRMETDLQAKMKKLQSMKAGSDRTKLEKDVMAQRQTFAQKAQAFEQDRARRSNEERGKLVTRIQTAVKSVANSQDIDLVVDANAVAYNSSDVKDITADVLKQVK”, the “soluble on expression in E. coli” value was “soluble”.
With “KVVFAKEQPAHREVQAEAGASATLSCEVAQAQTEVTWYKDGKKLSSSSKVRVEAVGCTRRLVVQQAGQAEAGEYSCEAGGQQLSFRLQVAGQCFG” the “soluble on expression in E. coli” value was “soluble”.
For “MAHHHHHHMQSALRSFSEAAVGLGTSQEKLAAFIAFTNQEKLRVPQLALLRELRRQLVAEEAIAERGRHHQQPDYGVSKRSSNASAAYQDSGDQNAHLSDLRKVNVLCSSKTEKSLQCSKTLSLNHQRGDSTTGAHKTRFQSPRFSSLKSVPFAQAGAANDEYDEDIRGFGARDFAPTPTPSGKLPYKPRDVCLLNSSYFANRSIRSDGSNPCGAPLPTSSPGTPSPSWRGAMTATAFAKLPAPSQQPLLAVDSSLGTVIDVDSEFSLVREAEDTAESRFAPKQDLSIVSMNSSQLELLNIAELAASSSEAALAQPPAAAVLTGIREKVADGSLSKHTVTLFHESNEKRSRGVAASTAAEVAVASVTASIAERKPAPSSQPSTQRGLCGYTNPGNFASLLVPNVLARPVSPPAERTVAPFSLRVAPASTSPSDKEKAVTLEQQEGMASTTAVTIGSTDSAGPAAASVASRLPSPPLITQAEENDGFVYYCANPSHSVIDSYAGRRKLLAVTVKL”, the “soluble on expression in E. coli” value was “not soluble”.
For “MSLRVADLLQHINLMKTSDSYGFKEEYESFFEGQSASWDVAKKDQNRAKNRYGNIIAYDHSRVILQPVEDDPSSDYINANYIDGYQRPSHYIATQGPVHETVYDFWRMIWQEQSACIVMVTNLVEVGRVKCYKYWPDDTEVYGDFKVTCVEMEPLAEYVVRTFTLERRGYNEIREVKQFHFTGWPDHGVPYHATGLLSFIRRVKLSNPPSAGPIVVHCSAGAGRTGCYIVIDIMLDMAEREGVVDIYNCVKALRSRRINMVQTEEQYIFIHDAILEACLCGETAIPVCEFKAAYFDMIRIDSQTNSSHLKDEFQTLNSVTPRLQAEDCSIACLPRNHDKNRFMDMLPPDRCLPFLITIDGESSNYINAALMDSYRQPAAFIVTQYPLPNTVKDFWRLVYDYGCTSIVMLNEVDLSQGCPQYWPEEGMLRYGPIQVECMSCSMDCDVINRIFRICNLTRPQEGYLMVQQFQYLGWASHREVPGSKRSFLKLILQVEKWQEECEEGEGRTIIHCLNGGGRSGMFCAIGIVVEMVKRQNVVDVFHAVKTLRNSKPNMVEAPEQYRFCYDVALEYLESSEGHHHHHH”, the “soluble on expression in E. coli” value was “soluble”.
In the case of “MAMQAAKRANIRLPPEVNRILMIRNLPYKITAEEMYDIFGKYGPIRQIRVGNTPETRGTAYVVYEDIFDAKNACDHLSGFNVCNRYLVVLYYNANRAFQKMDTKKKEEQLKLLKEKYGINTDPPK”, the “soluble on expression in E. coli” value was “soluble”.
For “MRGSHHHHHHGSSQVADKDDPTNKFYQSVIQLGNGFLDVFTSFGGLVAEAFGFKSDPKKSDVKTYFTTVAAKLEKTKTDLNSLPKEKSDISSTTGKPDSTGSVGTAVEGAIKEVSELLDKLVKAVKTAEGASSGTAAIGEVVADADAAKVADKASVKGIAKGIKEIVEAAGGSEKLKAVAAAKGENNKGAGKLFGKAGAAAHGDSEAASKAAGAVSAVSGEQILSAIVTAADAAEQDGKKPEEAKNPIAAAIGDKDGGAEFGQDEMKKDDQIAAAIALRGMAKDGKFAVKDGEKEKAEGAIKGAAESAVRKVLGAITGLIGDAVSSGLRKVGDSVKAASKETPPALNK”, the “soluble on expression in E. coli” value was “soluble”.
With “MAHHHHHHMSETSACPLNDFFDIDEENNLDEIKKEEKDVFSGNFLSYIYNQFEFCCINFFDELKKKDKRKNITLKKNYSDGYSKNDNGQCYYNVFDKILKKDVDTIKEVSLHSIYFNPHADWCECAHEFNLELNHEEAEFCIFNFFLKMYRYEERNKDLLLSILLECLYSKKDMKKAFHIQKENLKFLKEIKNIETSNFKESLNELINIIENTNFIQFNANEKKDMQKYYFKLYIIIKIKYPYGIYIFNCDDVYDIVVIDCNTFMQNKPKIMSFLSLRKFISFLNNIYSININEENIYDSFPIIVYESKECYHLSHSHLPLNLTACTPKEKKKNSVKNHLNQSGNENENENKD” the “soluble on expression in E. coli” value was “not soluble”.
For “GSPGISGGGGGILGLMAEQEPTAEQLAQIAAENEEDEHSVNYKPPAQKSIQEIQELDKDDESLRKYKEALLGRVAVSADPNVPNVVVTRLTLVCSTAPGPLELDLTGDLESFKKQSFVLKEGVEYRIKISFRVNREIVSGMKYIQHTYRKGVKIDKTDYMVGSYGPRAEEYEFLTPMEEAPKGMLARGSYNIKSRFTDDDRTDHLSWEWNLTIKKEWKD”, the “soluble on expression in E. coli” value was “soluble”.
With “MSLDVISELVKKNGSKILLIVLDGLGGLPVKEGKTELELAKTPNLDKLVKNSATGLHIPVDWGITPGSGPGHLGLFGYDPIKYQIGRGILEALGLGIDVKDTDIAVRGNYATVEYRNGKPIVVDRRAGRIPTEENKRITAKLQEAIKEIDGVQVIIKPGMEHRLAIVFRFPEKLSPGSDAINDTDPQQVGKEPLEPKGENPNAEKVAEVVRKFIQRATEILRNEPKANYILLRGFSQKPDIPTMEERFGVKPCCIAVYPMYKGLASLVGMDVIEFEGSTIQDEIDTLKKVWNEYDYFFVHIKKTDSYGEDGNYEGKVSVIEDFDAHLPQFLELKPDVLAITGDHSTPSILKGHSWHPVPLLIHSPYVLGGTSERFTERECLKGELGIIPAVKITQLLLANALRLKKYGAEGHHHHHH” the “soluble on expression in E. coli” value was “soluble”.
With “MSLKPAPRWPLHPAPREGEALSSWLNRVALCYHMEVSELLEHDLGHAQVDDLDTAPPLALLAMLSQRSGIEPDRLRCMSFAGWVPWLLDSLDDQIPDALETYAFQLSVLLPKLRRRTRSITSWRAWLPSQPIHRACPLCLNDPANQAVLLAWKLPLMLSCPLHGCWLESYWGVPGCQRRSNTDPWRRGEGHHHHHH” the “soluble on expression in E. coli” value was “not soluble”.
